Test results from US20100196361A1, “Method of inhibition of vascular development using an antibody” (DYAX CORP., priority 2003, published 2010).

T1: Tie1-EpoR chimeric receptor (UniProt P14753+P35590)
T1 construct: PCR amplified extracellular part of human Tie1 (bp 37-2316 of X60975); expressed in transfected cells
T1 sequence (P35590+P14753 with tags, fused parts or gaps): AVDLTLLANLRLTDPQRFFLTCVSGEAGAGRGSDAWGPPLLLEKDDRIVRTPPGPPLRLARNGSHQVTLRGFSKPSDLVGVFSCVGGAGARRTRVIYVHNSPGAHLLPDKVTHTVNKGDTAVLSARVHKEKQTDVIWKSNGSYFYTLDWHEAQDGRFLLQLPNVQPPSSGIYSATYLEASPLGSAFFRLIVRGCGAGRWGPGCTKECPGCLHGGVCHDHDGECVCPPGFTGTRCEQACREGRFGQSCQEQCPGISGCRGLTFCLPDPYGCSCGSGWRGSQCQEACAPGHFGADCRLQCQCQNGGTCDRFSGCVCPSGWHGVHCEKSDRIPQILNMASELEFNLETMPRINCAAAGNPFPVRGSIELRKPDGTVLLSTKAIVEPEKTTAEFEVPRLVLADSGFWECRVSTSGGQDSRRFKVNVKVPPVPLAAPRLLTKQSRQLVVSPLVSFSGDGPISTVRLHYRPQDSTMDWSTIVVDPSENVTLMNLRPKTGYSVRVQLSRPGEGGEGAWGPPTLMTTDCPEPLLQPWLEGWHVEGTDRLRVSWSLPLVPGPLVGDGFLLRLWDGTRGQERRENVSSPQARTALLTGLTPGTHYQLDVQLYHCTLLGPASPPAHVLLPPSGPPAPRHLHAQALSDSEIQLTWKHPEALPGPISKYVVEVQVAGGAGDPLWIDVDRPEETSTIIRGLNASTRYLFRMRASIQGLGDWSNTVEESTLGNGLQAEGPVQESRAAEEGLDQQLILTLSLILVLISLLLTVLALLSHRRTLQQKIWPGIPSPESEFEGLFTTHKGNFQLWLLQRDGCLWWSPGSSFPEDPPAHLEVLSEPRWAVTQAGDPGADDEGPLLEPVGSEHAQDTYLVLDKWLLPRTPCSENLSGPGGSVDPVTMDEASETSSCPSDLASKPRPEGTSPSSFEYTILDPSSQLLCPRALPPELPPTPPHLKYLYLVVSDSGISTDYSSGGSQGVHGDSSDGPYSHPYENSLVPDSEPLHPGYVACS

B1: E3: human anti-Tie1 antibody from phage Fab library, reformatted as IgG; HC variable SEQ ID NO:114, LC variable SEQ ID NO:116 (antibody, V domains shown)
VH: EVQLLESGGGLVQPGGSLRLSCAASGFTFSMYGMVWVRQAPGKGLEWVSVISPSGGNTGYADSVKGRFTISRDNSKNTLYLQVNSLRAEDTAVYYCARAPRGYSYGYYYWGQGTLVTVSSASTKGPSVFPLAPSSKSTSGG
VL: DIQMTQSPLSLSASVGDRVTITCRASQGIGHYLAWYQQKPGKVPKLLIYTASTLQSGVPSRFSGSGSGTDFTLTINSLQPEDVATYYCQQFNSYPHTFGQGTRLDIK
modifications: IgG constant regions; Synthetically generated peptide
B2: parental E3 Fab: soluble Fab fragment of the parental E3 anti-Tie1 antibody (antibody, V domains shown)
VH: EVQLLESGGGLVQPGGSLRLSCAASGFTFSMYGMVWVRQAPGKGLEWVSVISPSGGNTGYADSVKGRFTISRDNSKNTLYLQVNSLRAEDTAVYYCARAPRGYSYGYYYWGQGTLVTVSSASTKGPSVFPLAPSSKSTSGG
VL: DIQMTQSPLSLSASVGDRVTITCRASQGIGHYLAWYQQKPGKVPKLLIYTASTLQSGVPSRFSGSGSGTDFTLTINSLQPEDVATYYCQQFNSYPHTFGQGTRLDIK

Target: T1, Tie1-EpoR chimeric receptor
Assay: BaF3 bioassay (Tie1/EpoR chimeric BaF3 cell assay)
Assay type: cell-based, human
Settings: for survival (viability) of Tie1-EpoR BaF3 cells: no IL-3, MTT
Excerpt: BaF3 bioassay. To generate Tie1-EpoR expressing BaF3 cells for the bioassay, BaF3 pre-B cells were stably transfected with a nucleic acid that expresses chimeric receptor containing the extracellular domain of human Tie1 fused with the transmembrane and cytoplasmic domains of the mouse erythropoietin receptor. The nucleic acid used was a Tie1-EpoR chimeric cDNA in a pEF-BOS expression vector. The nucleic acid encoding the chimeric receptor was constructed by cloning the PCR amplified extracellular part of human Tie1 (bp 37-2316 of X60975) as EcoRI-BglII fragment into mEpoR-pcDNA vector. The cDNA encoding for the chimeric receptor consisting of the extracellular part of Tie1 fused with the transmembrane and intracellular domains of EpoR was subcloned into the pEF-BOS expression vector. Vector was linearized and co-transfected into BaF3 cells with pcDNA3.1(+) Zeo vector (Invitrogen). Stable cell pools were generated by selection with 250 μg/ml Zeocin. The expression of Tie1/EpoR fusion protein in several clones was analyzed by Western blotting with an antibody against EpoR.
To perform the assays, BaF3 cells expressing the Tie1-EpoR chimera were split in 96-well microtiter plates at 50 000 cells/well in the presence of the indicated concentrations of anti-Tie1 antibodies. The E3 antibody used in this study was the germ-lined E3 antibody (DX-2220). As controls, Zeocin resistant pools not expressing the Tie1-EpoR were used. After 48 h, the viability of the cells was determined by adding MTT (3-(4,5-dimethylthiazol-2-yl)-2,5-diphenyl tetrazolium bromide (Sigma), 0.5 mg/ml), followed by further 2 h of culture, addition of an equal volume of cell lysis solution (10% SDS, 10 mM HCl) and incubation overnight at 37° C. Absorbance was measured at 540 nm.
Stimulation and inhibition of Tie1 in Tie1-EpoR transfected BaF3 cells and human primary endothelial cells. Although no ligand for Tie1 has been identified, we used the following efficient screening method for Tie1-binding proteins. Interleukin-3 dependent pre-B-lymphocyte (BaF3) cells were transfected with a construct that expresses a Tie1-EpoR fusion protein. Since BaF3 cells are IL-3 dependent, they die unless IL-3 is provided. However, Tie-EpoR receptor expressing BaF3 cells can survive and proliferate if the medium contains a Tie1-binding protein, either a natural ligand or an artificial mimetic. Cell survival can be quantitated, e.g., by colorimetric MTT-assay, which measures mitochondrial activity.
To determine if any of the other monoclonal antibodies tested inhibit the survival effect of E3 IgG in Tie1-EpoR BaF3 assay, antibodies were studied in combination with E3 IgG. A concentration of 100 ng/ml of E3 IgG together with 100 (1:1) or 500 (1:5) ng/ml of the other antibodies were used and the viability of Tie1-EpoR cells was measured.

Molecule	viability of EpoR BaF3 cells used as a control (cells not expressing Tie1-EpoR)	survival (viability) of Tie1-EpoR BaF3 cells	survival (viability) of Tie1-EpoR BaF3 cells (listed as E3 IgG)	concentration giving almost maximal viability in Tie1-EpoR cell survival assays (viability dose dependent) [ng/mL]
B1	not affected	functions as a Tie1 activating antibody in the BaF3 cell bioassay	able to promote survival of Tie1-EpoR cells	50
B2	–	no effect on the viability of Tie1-EpoR cells	–	–
